{"source": "patent US20220119490A1", "about": "(Genentech, published 2022)", "key": {"[1]": {"target": "T1, LRRC4B expressed on cells (human, UniProt Q9NT99 36-713)", "T1 construct": "whole, on cells; C-terminally tagged in the co-IP; also called NGL-3; LRRC4B-FLAG", "T1 sequence (looked up)": "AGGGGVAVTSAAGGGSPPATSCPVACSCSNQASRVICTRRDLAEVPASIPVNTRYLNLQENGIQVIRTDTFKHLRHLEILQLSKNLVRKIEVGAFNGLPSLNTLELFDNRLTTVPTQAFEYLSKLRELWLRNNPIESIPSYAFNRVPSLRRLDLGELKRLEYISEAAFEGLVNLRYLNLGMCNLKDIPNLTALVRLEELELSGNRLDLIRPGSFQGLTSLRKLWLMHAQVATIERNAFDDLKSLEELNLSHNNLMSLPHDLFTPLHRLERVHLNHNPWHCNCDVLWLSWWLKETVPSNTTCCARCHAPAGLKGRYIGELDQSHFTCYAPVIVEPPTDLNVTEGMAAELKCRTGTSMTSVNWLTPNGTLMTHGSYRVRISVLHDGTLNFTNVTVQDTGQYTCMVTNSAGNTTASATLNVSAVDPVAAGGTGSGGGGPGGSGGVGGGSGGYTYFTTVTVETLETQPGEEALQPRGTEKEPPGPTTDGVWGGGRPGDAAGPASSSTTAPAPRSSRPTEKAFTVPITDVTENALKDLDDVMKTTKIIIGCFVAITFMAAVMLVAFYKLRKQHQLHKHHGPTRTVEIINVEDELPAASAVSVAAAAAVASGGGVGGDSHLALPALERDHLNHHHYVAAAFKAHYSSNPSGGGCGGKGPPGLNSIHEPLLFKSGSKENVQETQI", "assay": "cell surface interaction assay: query ECD tetramerised with fluorescent streptavidin on transfected cells, immunofluorescence"}, "[2]": {"target": "T2, PTPRD expressed on cells (human, UniProt P23468 21-1912)", "T2 construct": "whole, on cells; also called receptor-type tyrosine-protein phosphatase delta", "assay": "cell surface interaction assay: streptavidin-tetramerized biotinylated ECD on transfected cells, immunofluorescence"}, "[3]": {"target": "T3, PTPRS expressed on cells (human, UniProt Q13332 30-1948)", "T3 construct": "whole, on cells; also called receptor-type tyrosine-protein phosphatase S", "assay": "cell surface interaction assay: streptavidin-tetramerized biotinylated ECD on transfected cells, immunofluorescence"}, "[4]": {"target": "T4, PTPRM expressed on cells (human, UniProt P28827 21-1452)", "T4 construct": "whole, on cells", "T4 sequence (P28827 21-1452)": "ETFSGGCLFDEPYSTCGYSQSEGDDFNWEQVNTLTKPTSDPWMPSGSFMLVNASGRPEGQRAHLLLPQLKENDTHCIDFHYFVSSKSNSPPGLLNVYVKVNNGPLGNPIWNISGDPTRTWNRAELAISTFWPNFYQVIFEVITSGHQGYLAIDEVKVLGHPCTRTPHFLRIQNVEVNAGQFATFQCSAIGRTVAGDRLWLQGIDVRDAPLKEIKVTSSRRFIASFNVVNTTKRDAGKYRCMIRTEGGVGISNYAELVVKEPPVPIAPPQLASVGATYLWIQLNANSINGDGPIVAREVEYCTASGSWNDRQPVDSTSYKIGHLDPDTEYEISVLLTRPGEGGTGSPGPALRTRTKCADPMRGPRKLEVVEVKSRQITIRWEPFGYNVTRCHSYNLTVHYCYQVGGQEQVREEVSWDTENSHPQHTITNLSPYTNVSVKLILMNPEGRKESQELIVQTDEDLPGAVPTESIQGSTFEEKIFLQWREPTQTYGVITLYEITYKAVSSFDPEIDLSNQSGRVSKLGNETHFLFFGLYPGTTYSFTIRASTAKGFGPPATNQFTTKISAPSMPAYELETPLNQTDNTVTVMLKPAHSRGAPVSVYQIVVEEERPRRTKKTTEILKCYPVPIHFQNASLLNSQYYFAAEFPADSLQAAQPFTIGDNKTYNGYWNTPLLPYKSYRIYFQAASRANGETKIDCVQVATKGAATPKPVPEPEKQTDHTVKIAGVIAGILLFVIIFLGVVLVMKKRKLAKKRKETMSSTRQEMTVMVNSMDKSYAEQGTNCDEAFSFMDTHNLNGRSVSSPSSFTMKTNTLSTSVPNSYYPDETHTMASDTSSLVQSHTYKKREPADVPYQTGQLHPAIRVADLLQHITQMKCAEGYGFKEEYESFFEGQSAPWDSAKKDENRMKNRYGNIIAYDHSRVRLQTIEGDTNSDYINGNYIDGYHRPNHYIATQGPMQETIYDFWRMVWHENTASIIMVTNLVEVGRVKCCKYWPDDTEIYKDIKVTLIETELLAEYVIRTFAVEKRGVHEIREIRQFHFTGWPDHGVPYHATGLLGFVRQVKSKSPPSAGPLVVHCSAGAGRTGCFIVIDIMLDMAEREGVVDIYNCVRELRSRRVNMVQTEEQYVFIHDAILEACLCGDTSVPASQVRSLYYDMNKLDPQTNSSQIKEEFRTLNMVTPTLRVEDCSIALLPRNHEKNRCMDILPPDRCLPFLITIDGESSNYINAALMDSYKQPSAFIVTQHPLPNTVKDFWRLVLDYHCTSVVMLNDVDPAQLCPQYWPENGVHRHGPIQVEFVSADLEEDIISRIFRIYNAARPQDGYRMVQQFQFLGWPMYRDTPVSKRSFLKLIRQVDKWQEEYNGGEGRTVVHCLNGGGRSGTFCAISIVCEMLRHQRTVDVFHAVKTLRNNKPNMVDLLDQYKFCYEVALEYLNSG", "assay": "cell surface interaction assay: query ECD tetramerised with fluorescent streptavidin on transfected cells, immunofluorescence"}, "[5]": {"target": "T5, PTPRF expressed on cells (human, UniProt P10586 30-1907)", "T5 construct": "whole, on cells; also called receptor-type tyrosine-protein phosphatase F", "assay": "cell surface interaction assay: query ECD tetramerised with fluorescent streptavidin on transfected cells, immunofluorescence"}, "[6]": {"target": "T6, PTPRZ1 expressed on cells (human, UniProt P23471 25-2315)", "T6 construct": "whole, on cells", "assay": "cell surface interaction assay: query ECD tetramerised with fluorescent streptavidin on transfected cells, immunofluorescence"}, "[7]": {"target": "T7, PTPRG expressed on cells (human, UniProt P23470 20-1445)", "T7 construct": "whole, on cells", "T7 sequence (P23470 20-1445)": "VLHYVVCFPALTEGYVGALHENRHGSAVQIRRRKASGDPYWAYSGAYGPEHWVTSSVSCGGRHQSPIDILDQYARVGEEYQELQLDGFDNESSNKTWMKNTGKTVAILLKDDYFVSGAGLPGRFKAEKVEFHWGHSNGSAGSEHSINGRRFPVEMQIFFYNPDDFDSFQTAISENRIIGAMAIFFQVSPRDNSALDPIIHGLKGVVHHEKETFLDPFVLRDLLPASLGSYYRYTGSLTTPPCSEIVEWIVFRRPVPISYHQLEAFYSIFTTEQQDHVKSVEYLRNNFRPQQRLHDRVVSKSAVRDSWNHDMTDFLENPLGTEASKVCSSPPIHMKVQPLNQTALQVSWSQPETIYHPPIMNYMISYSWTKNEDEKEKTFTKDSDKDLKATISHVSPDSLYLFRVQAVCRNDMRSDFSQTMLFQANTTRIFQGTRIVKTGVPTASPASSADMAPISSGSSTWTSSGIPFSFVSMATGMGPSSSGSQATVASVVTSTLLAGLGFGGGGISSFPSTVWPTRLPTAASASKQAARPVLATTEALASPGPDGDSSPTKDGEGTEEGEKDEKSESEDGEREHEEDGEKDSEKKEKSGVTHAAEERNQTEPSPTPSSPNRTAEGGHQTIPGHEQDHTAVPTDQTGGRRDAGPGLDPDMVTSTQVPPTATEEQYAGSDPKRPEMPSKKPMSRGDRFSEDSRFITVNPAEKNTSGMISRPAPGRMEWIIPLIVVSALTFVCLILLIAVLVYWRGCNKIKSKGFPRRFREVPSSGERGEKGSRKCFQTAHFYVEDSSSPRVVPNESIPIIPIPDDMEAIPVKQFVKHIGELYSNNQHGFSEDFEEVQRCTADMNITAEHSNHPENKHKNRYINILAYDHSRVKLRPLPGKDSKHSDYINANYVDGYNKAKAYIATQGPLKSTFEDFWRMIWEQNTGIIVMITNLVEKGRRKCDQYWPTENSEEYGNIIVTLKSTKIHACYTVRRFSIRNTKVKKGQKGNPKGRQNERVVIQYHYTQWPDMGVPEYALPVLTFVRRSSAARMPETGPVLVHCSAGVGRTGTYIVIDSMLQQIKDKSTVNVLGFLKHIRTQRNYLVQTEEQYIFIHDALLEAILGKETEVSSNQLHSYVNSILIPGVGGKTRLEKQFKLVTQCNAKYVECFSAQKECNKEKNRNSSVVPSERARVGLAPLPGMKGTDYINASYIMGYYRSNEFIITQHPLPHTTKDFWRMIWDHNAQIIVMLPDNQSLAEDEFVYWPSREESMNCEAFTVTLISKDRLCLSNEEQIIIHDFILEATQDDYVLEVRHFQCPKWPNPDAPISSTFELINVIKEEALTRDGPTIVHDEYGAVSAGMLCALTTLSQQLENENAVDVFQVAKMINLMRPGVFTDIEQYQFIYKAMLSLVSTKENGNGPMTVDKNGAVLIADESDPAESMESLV", "assay": "cell surface interaction assay: query ECD tetramerised with fluorescent streptavidin on transfected cells, immunofluorescence"}, "[8]": {"target": "T8, PTPRO expressed on cells (human, UniProt Q16827 30-1216)", "T8 construct": "whole, on cells", "T8 sequence (looked up)": "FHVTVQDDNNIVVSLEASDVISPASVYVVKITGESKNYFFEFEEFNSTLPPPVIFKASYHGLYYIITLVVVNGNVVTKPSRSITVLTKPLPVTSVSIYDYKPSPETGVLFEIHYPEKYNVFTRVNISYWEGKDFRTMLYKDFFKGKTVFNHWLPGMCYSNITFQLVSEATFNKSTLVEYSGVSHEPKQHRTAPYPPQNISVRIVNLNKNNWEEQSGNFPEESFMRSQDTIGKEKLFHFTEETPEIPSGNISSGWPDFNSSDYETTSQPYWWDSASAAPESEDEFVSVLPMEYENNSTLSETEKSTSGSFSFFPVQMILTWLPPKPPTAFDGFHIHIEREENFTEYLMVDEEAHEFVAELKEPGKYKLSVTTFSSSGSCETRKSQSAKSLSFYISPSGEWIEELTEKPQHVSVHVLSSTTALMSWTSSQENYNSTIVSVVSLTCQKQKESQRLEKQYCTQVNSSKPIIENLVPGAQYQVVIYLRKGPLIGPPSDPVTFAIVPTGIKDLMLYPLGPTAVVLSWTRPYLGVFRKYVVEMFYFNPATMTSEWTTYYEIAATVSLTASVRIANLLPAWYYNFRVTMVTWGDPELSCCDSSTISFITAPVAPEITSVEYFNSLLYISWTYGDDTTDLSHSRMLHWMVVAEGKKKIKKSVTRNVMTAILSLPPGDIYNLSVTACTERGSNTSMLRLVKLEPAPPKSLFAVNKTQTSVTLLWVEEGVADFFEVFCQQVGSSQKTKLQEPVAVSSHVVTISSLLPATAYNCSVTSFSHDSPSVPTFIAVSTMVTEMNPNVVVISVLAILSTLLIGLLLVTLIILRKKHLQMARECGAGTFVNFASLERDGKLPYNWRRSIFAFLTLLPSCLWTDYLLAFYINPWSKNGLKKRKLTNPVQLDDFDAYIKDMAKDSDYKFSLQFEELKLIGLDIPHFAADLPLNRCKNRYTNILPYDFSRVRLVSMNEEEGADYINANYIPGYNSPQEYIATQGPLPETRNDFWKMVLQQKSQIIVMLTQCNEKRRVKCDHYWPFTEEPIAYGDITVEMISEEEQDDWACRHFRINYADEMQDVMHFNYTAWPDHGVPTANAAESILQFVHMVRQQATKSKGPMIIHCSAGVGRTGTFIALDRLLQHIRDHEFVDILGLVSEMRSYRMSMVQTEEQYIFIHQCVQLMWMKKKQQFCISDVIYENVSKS", "assay": "cell surface interaction assay: query ECD tetramerised with fluorescent streptavidin on transfected cells, immunofluorescence"}, "[9]": {"target": "T9, PTPRT expressed on cells (human, UniProt O14522 26-1441)", "T9 construct": "whole, on cells", "T9 sequence (looked up)": "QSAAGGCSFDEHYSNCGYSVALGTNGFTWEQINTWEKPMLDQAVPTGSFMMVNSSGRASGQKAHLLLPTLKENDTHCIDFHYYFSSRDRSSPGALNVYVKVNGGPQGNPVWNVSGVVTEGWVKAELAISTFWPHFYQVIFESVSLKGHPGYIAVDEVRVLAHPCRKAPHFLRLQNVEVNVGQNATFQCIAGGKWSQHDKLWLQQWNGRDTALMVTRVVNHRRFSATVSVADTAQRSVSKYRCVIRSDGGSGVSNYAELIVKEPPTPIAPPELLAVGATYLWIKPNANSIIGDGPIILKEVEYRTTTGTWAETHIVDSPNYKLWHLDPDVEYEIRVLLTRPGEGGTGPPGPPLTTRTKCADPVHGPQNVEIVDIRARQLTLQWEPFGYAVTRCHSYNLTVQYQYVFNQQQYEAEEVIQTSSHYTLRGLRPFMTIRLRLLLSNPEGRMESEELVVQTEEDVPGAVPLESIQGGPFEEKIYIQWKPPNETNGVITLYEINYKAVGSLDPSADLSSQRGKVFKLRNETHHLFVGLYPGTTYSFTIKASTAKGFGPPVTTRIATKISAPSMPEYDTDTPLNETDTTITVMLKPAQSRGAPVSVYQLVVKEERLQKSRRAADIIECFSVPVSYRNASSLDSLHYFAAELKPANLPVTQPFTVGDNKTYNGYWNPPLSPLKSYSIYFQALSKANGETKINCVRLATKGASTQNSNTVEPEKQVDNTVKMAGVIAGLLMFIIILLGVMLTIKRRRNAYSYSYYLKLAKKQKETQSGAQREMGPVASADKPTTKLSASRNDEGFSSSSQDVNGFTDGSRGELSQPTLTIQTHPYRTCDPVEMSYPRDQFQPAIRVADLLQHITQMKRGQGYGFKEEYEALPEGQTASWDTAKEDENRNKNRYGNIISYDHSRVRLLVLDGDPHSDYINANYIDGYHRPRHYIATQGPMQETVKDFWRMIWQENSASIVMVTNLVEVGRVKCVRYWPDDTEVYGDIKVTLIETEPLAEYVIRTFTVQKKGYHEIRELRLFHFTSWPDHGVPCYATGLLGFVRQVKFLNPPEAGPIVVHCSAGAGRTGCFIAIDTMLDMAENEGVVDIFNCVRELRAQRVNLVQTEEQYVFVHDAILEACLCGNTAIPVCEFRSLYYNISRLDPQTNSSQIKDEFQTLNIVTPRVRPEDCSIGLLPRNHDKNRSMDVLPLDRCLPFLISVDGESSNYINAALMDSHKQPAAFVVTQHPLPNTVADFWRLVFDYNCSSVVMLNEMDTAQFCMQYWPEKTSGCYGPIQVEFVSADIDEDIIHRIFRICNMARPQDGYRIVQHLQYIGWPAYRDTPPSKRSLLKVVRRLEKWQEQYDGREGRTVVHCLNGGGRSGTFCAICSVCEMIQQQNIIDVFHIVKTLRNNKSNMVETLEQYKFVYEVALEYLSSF", "assay": "cell surface interaction assay: query ECD tetramerised with fluorescent streptavidin on transfected cells, immunofluorescence"}, "[10]": {"target": "T10, BTN3A1 full-length (co-IP) (human, UniProt O00481 30-513)", "T10 construct": "whole, on cells; also called BTN3A1-HA", "T10 sequence (O00481 30-513)": "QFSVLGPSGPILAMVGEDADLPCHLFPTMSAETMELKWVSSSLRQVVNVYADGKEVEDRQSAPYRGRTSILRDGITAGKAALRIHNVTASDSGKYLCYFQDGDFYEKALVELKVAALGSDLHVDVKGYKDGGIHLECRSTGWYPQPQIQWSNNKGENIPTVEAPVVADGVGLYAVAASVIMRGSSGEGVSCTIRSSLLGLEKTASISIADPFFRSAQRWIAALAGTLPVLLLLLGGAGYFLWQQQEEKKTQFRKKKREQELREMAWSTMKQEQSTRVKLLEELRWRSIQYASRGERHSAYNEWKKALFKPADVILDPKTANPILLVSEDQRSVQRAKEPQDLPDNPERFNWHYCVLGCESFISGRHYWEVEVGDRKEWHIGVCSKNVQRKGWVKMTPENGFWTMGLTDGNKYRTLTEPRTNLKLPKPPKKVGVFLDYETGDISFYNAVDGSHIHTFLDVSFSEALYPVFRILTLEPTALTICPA", "assay": "co-immunoprecipitation from co-transfected cells, IP anti-FLAG, western blot anti-HA"}}}
{"binder": "BTN2A2 extracellular domain (receptor, human, UniProt Q8WVV5 33-265, looked up, extracellular domain; Soluble query, streptavidin tetramer) QFTVVGPANPILAMVGENTTLRCHLSPEKNAEDMEVRWFRSQFSPAVFVYKGGRERTEEQMEEYRGRITFVSKDINRGSVALVIHNVTAQENGIYRCYFQEGRSYDEAILRLVVAGLGSKPLIEIKAQEDGSIWLECISGGWYPEPLTVWRDPYGEVVPALKEVSIADADGLFMVTTAVIIRDKYVRNVSCSVNNTLLGQEKETVIFIPESFMPSASPWMVALAVILTASPWM", "values": [{"measurement": "binding result", "setting": "[1]", "value": "no binding"}]}
{"binder": "SLITRK2 extracellular domain (receptor, human, UniProt Q9H156 22-621, looked up, extracellular domain; Soluble query, streptavidin tetramer; also called SLITKR2) RKTAKDICKIRCLCEEKENVLNINCENKGFTTVSLLQPPQYRIYQLFLNGNLLTRLYPNEFVNYSNAVTLHLGNNGLQEIRTGAFSGLKTLKRLHLNNNKLEILREDTFLGLESLEYLQADYNYISAIEAGAFSKLNKLKVLILNDNLLLSLPSNVFRFVLLTHLDLRGNRLKVMPFAGVLEHIGGIMEIQLEENPWNCTCDLLPLKAWLDTITVFVGEIVCETPFRLHGKDVTQLTRQDLCPRKSASDSSQRGSHADTHVQRLSPTMNPALNPTRAPKASRPPKMRNRPTPRVTVSKDRQSFGPIMVYQTKSPVPLTCPSSCVCTSQSSDNGLNVNCQERKFTNISDLQPKPTSPKKLYLTGNYLQTVYKNDLLEYSSLDLLHLGNNRIAVIQEGAFTNLTSLRRLYLNGNYLEVLYPSMFDGLQSLQYLYLEYNVIKEIKPLTFDALINLQLLFLNNNLLRSLPDNIFGGTALTRLNLRNNHFSHLPVKGVLDQLPAFIQIDLQENPWDCTCDIMGLKDWTEHANSPVIINEVTCESPAKHAGEILKFLGREAICPDSPNLSDGTVLSMNHNTDTPRSLSVSPSSYPELHTEVPLSVL", "values": [{"measurement": "binding result", "setting": "[2]", "value": "binds"}, {"measurement": "binding result", "setting": "[3]", "value": "binds"}, {"measurement": "binding result", "setting": "[4]", "value": "no binding"}, {"measurement": "binding result", "setting": "[5]", "value": "no binding"}, {"measurement": "binding result", "setting": "[6]", "value": "no binding"}, {"measurement": "binding result", "setting": "[7]", "value": "no binding"}, {"measurement": "binding result", "setting": "[8]", "value": "no binding"}, {"measurement": "binding result", "setting": "[9]", "value": "no binding"}]}
{"binder": "VSIG8-FLAG (receptor, human, UniProt P0DPA2 22-414, looked up, full-length, tagged; also called VSIG8 full-length (co-IP)) immunoprecipitated protein: VRINGDGQEVLYLAEGDNVRLGCPYVLDPEDYGPNGLDIEWMQVNSDPAHHRENVFLSYQDKRINHGSLPHLQQRVRFAASDPSQYDASINLMNLQVSDTATYECRVKKTTMATRKVIVTVQARPAVPMCWTEGHMTYGNDVVLKCYASGGSQPLSYKWAKISGHHYPYRAGSYTSQHSYHSELSYQESFHSSINQGLNNGDLVLKDISRADDGLYQCTVANNVGYSVCVVEVKVSDSRRIGVIIGIVLGSLLALGCLAVGIWGLVCCCCGGSGAGGARGAFGYGNGGGVGGGACGDLASEIREDAVAPGCKASGRGSRVTHLLGYPTQNVSRSLRRKYAPPPCGGPEDVALAPCTAAAACEAGPSPVYVKVKSAEPADCAEGPVQCKNGLLV", "values": [{"measurement": "binding result", "setting": "[10]", "value": "no binding"}]}
